Measurements published in PMC8213764, “Human intelectin-1 (ITLN1) genetic variation and intestinal expression” (Scientific Reports, 2021).
Where “and” joins values, the source holds several entries; their conditions need not be identical. Equal entries are not always repeated.

Target: the molecule itself
Test: non-reducing SDS-PAGE immunoblot; human ileal lysates (150 mM NaCl, 1% Triton X-100, 0.5% sodium deoxycholate, 0.1% SDS, 50 mM Tris pH 8.0), heated at 95 °C for 30 min without 2-mercaptoethanol, gradient SDS-PAGE (4-20%), immunoblot; oligomers stable under denaturing conditions

B1: Human intelectin-1 (ITLN1) V109, from V109 homozygote (VV) ileal specimens (natural protein, human (endogenous in ileum), UniProt Q8WWA0 19-298, looked up)
chain: TDEANTYFKEWTCSSSPSLPRSCKEIKDECPSAFDGLYFLRTENGVIYQTFCDMTSGGGGWTLVASVHENDMRGKCTVGDRWSSQQGSKAVYPEGDGNWANYNTFGSAEAATSDDYKNPGYYDIQAKDLGIWHVPNKSPMQHWRNSSLLRYRTDTGFLQTLGHNLFGIYQKYPVKYGEGKCWTDNGPVIPVVYDFGDAQKTASYYSPYGQREFTAGFVQFRVFNNERAANALCAGMRVTGCNTEHHCIGGGGYFPEASPQQCGDFSGFDWSGYGTHVGYS
modifications: single glycosylation site at N163
notes: Human intelectin-1 (ITLN1) with valine at position 109 (rs2274907 A allele), endogenous in ileal mucosa; also called VV genotype; V109-ITLN1; source: endogenous, ileal specimens of V109 homozygote individuals, in lysate
- stoichiometry N: 3 and 6

B2: Human intelectin-1 (ITLN1) D109, from D109 homozygote (DD) ileal specimens (natural protein, human (endogenous in ileum), UniProt Q8WWA0 19-298, looked up)
chain: TDEANTYFKEWTCSSSPSLPRSCKEIKDECPSAFDGLYFLRTENGVIYQTFCDMTSGGGGWTLVASVHENDMRGKCTVGDRWSSQQGSKADYPEGDGNWANYNTFGSAEAATSDDYKNPGYYDIQAKDLGIWHVPNKSPMQHWRNSSLLRYRTDTGFLQTLGHNLFGIYQKYPVKYGEGKCWTDNGPVIPVVYDFGDAQKTASYYSPYGQREFTAGFVQFRVFNNERAANALCAGMRVTGCNTEHHCIGGGGYFPEASPQQCGDFSGFDWSGYGTHVGYS
modifications: single glycosylation site at N163
notes: Human intelectin-1 (ITLN1), natural missense variant rs2274907 (T allele) with aspartic acid at position 109, endogenous in ileal mucosa; Natural allele (rs2274907 T); also called DD genotype; D109-ITLN1; source: endogenous, ileal specimens of D109 homozygote individuals, in lysate
- stoichiometry N: 3 and 6
